Measurements reported in the supplement of paper PMC11136658.

System: peptide library, one residue held at a place counted from the Y acceptor
Experiment: relative phosphorylation of the sub-library (ratio to the mean residue at this position); higher = residue favoured
Summary of the method: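 Purified recombinant kinases were incubated for 90 min in 384-well plates with biotinylated Tyr-centred peptide library mixtures, each fixing one residue at one position from −5 to +5, plus 50 μM ATP with γ-32P-ATP. Peptides were captured on streptavidin membranes, rinsed and quantified by phosphorimaging and ImageQuant. Intensities were normalized per position by the sum of the 18 (or 16, Ser/Thr-free library) randomized residues and multiplied by that number. Values give phosphorylation relative to the mean randomized residue.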

Chain of TESK1, construct: aa1-345, human (Q15569 1-345, looked up): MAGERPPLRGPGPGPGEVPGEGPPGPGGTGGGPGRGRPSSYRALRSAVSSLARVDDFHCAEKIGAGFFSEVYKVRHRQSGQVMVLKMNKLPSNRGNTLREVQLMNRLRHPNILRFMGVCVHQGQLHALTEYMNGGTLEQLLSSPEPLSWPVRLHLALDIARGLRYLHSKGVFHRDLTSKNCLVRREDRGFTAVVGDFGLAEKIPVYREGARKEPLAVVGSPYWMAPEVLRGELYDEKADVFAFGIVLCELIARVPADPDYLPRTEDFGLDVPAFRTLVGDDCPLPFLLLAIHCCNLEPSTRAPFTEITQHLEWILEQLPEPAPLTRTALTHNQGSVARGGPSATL
Chain of EPHA4, construct: aa610-887, human (P54764 610-887, looked up): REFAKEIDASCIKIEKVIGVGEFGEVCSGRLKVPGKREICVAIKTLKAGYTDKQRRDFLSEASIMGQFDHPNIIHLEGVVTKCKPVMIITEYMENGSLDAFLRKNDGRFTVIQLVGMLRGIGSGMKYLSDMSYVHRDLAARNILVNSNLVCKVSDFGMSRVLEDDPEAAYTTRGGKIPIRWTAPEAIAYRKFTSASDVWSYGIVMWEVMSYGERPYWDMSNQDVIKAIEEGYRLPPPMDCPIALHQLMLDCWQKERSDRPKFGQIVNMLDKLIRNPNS

TESK1, construct: aa1-345, human (from UniProt Q15569)
relative phosphorylation
Conditions	at +1	at +2	at +3	at +4	at +5	at -1	at -2	at -3	at -4	at -5
A fixed	0.921	0.778	0.879	0.762	0.876	0.971	0.967	0.874	0.973	0.938
D fixed	0.992	0.998	0.881	0.902	0.794	0.977	0.822	0.931	0.858	0.85
E fixed	0.876	0.917	0.871	0.854	0.839	0.953	0.833	0.776	0.792	0.742
F fixed	0.935	1.11	0.936	0.966	0.869	0.778	0.911	0.926	0.984	0.883
G fixed	0.887	0.899	0.928	1.03	0.915	1	1.09	1.11	1.13	1.05
H fixed	1.01	1.09	1.06	1.07	1.17	0.962	0.976	0.915	0.949	0.975
I fixed	0.796	0.626	0.682	0.781	0.734	0.774	0.952	0.79	0.823	0.861
K fixed	1.13	1.27	1.23	1.3	1.15	1.18	1.34	1.25	1.26	1.35
L fixed	0.81	0.812	0.783	0.913	0.807	0.831	0.92	0.918	0.816	0.862
M fixed	0.76	0.796	0.831	0.928	0.841	0.835	0.81	0.846	0.869	0.82
N fixed	1.05	1.16	1.11	0.978	0.964	1.17	1.01	0.971	0.921	0.964
P fixed	1.02	1.09	1.15	1.28	1.05	1.26	1.07	1.36	1.16	1.1
Q fixed	1.09	1.09	1.02	1.09	0.929	1	0.842	1.04	0.891	0.831
R fixed	1.18	1.25	1.23	1.19	1.27	1.26	1.27	1.29	1.2	1.27
V fixed	0.817	0.69	0.72	0.764	0.713	0.743	0.946	0.864	0.875	0.881
W fixed	1.72	1.44	1.69	1.19	2.09	1.29	1.24	1.14	1.5	1.62
pThr fixed	0.988	0.893	0.765	0.809	0.615	1.05	0.932	0.934	0.929	0.776
pTyr fixed	0.746	0.819	0.738	0.714	0.627	0.861	0.798	0.896	0.669	0.711

EPHA4, construct: aa610-887, human (from UniProt P54764)
relative phosphorylation
Conditions	at +1	at +2	at +3	at +4	at +5	at -1	at -2	at -3	at -4	at -5
A fixed	1.32	0.737	0.831	0.822	0.978	0.712	1.1	0.763	1.03	1.01
D fixed	1.31	2.05	0.748	1.15	1.18	2.37	1.27	1.2	1.28	1.11
E fixed	3.45	2.28	0.728	1.52	1.29	1.52	1.41	1.34	1.23	1.02
F fixed	0.73	1.14	1.22	0.976	1.25	0.885	0.778	1.24	1.16	1.08
G fixed	0.817	0.564	0.695	0.991	1.1	0.533	0.929	0.804	1.11	1.02
H fixed	0.631	0.779	0.833	1.07	0.933	0.672	0.865	0.873	0.867	0.959
I fixed	0.966	0.952	2.01	0.831	0.904	1.72	0.931	1.12	0.962	0.981
K fixed	0.473	0.527	0.525	0.679	0.67	0.513	0.825	0.594	0.836	0.965
L fixed	0.782	0.829	1.35	0.859	1.01	1.45	1.06	0.976	1.01	1.03
M fixed	1.06	0.86	1.13	0.923	0.938	0.802	0.777	0.851	0.902	1.01
N fixed	0.6	1.09	0.694	0.883	0.901	1.57	1.05	0.901	0.896	1
P fixed	0.509	0.757	1.5	1.25	1.44	0.641	1.42	0.94	1.12	1.05
Q fixed	1.02	0.797	0.708	0.909	0.82	0.638	1.07	0.753	1.04	0.95
R fixed	0.505	0.624	0.588	0.764	0.727	0.555	0.849	0.649	0.834	0.98
S fixed	0.757	0.756	0.685	0.897	0.945	0.689	1.1	0.851	0.919	0.921
T fixed	0.74	0.785	0.733	0.881	0.922	0.935	0.834	1.87	0.815	0.854
V fixed	1.38	0.997	1.59	0.84	0.879	1.08	0.95	0.959	0.861	0.918
W fixed	0.948	1.48	1.45	1.76	1.12	0.718	0.79	1.31	1.13	1.14
pThr fixed	1.73	2.97	0.917	1.23	1.13	2.06	1.1	0.813	0.997	0.912
pTyr fixed	1.87	8.24	1.28	1.75	1.33	2.22	1.09	1.01	1.09	1.07
